167 variants from the RNAGym collection of RNA variant scans (doi:10.7554/elife.80360) can be followed below.

First the molecules themselves.
B1: Hairpin Ribozyme (parent)
chain: GUCCUCUUUCACGUGCGCGUGAAAGAGAGAAGUGAACCAGAGAAACACACGUUGUGGUAUAUUACCUGGUA

The variants in the data set derive from B1. In words: self-cleavage, relative activity (ratio to wild type); higher = more cleavage; co-transcriptional.
For A24C C66U, the self-cleavage was found to be 0.395.

A26C A43U: the self-cleavage came out at 0.224.

As to A26C A43G, the self-cleavage stood at 0.144.

Regarding A26C A39G, the self-cleavage was 0.222.

Take G25A U58G: the self-cleavage was found to be 0.496.

In the case of G25A U58A, the self-cleavage stood at 0.376.

As for A23U A44C, the self-cleavage was 0.133.

As to G25A G68C, the self-cleavage is 0.22.

With G25U A36U, the self-cleavage is 0.4.

With G25U A36C, the self-cleavage worked out at 0.463.

For A26C A61U, the self-cleavage came to 0.184.

As for A26C A61G, the self-cleavage came to 0.0543.

Regarding A24G G25U, the self-cleavage came out at 0.527.

For the variant G25U G51C, the self-cleavage turned out to be 0.589.

As for A24U A71G, the self-cleavage is 1.11.

A24C C37U: the self-cleavage stood at 0.455.

On to A24C C37G, for which the self-cleavage was determined as 0.242.

As for A24G C50A, the self-cleavage was determined as 0.187.

G25A A64G: the self-cleavage was 0.469.

As to A24U G57C, the self-cleavage amounted to 0.181.

A23U C38A: the self-cleavage turned out to be 0.17.

Take A23U C38G: the self-cleavage was 0.167.

As for A24G G57A, the self-cleavage is 0.228.

With A24G G57C, the self-cleavage is 0.118.

For A24C U55A, the self-cleavage was 0.267.

As for A24C U55C, the self-cleavage was found to be 0.305.

As for G25C A35C, the self-cleavage was 0.474.

Turning to G25A A43G, the self-cleavage was 0.133.

G25A U60G: the self-cleavage worked out at 0.291.

Consider A24U A49G, for which the self-cleavage turned out to be 0.533.

As to G25A G69U, the self-cleavage was 0.0604.

G25A G69A: the self-cleavage came to 0.238.

With A23U U55C, the self-cleavage worked out at 0.358.

Regarding A26C A64C, the self-cleavage stood at 0.216.

Turning to A24C G25U, the self-cleavage worked out at 0.388.

For the variant A24U C50A, the self-cleavage stood at 0.346.

Consider G25C C38U, for which the self-cleavage worked out at 0.263.

On to G25U U52G, for which the self-cleavage turned out to be 0.696.

For G25U U52C, the self-cleavage was determined as 0.626.

For the variant G25A U53G, the self-cleavage worked out at 0.524.

In the case of A24C G27A, the self-cleavage was 0.341.

A24G A59G: the self-cleavage was 0.272.

As to A24G G68A, the self-cleavage was determined as 0.172.

Take A26C A35C: the self-cleavage is 0.726.

A24G G27A: the self-cleavage amounted to 0.401.

For A24U A35U, the self-cleavage is 0.584.

Regarding A24U A35C, the self-cleavage was 0.951.

For the variant G25A C38U, the self-cleavage came to 0.283.

Take A23G U62C: the self-cleavage came out at 0.43.

As for A23G U62G, the self-cleavage amounted to 0.0705.

G25C U62A: the self-cleavage worked out at 0.188.

Turning to A24G A41G, the self-cleavage came out at 0.78.

A23U C37U: the self-cleavage was determined as 0.594.

On to A23U U58A, for which the self-cleavage amounted to 0.539.

Take G25A U52A: the self-cleavage worked out at 0.643.

In the case of G25A U52G, the self-cleavage is 0.61.

As for G25A G56U, the self-cleavage was found to be 0.117.

A23U G42A: the self-cleavage was 0.214.

Consider A24U C65A, for which the self-cleavage was found to be 0.734.

For A24U C65U, the self-cleavage was determined as 0.39.

Take A23U G51C: the self-cleavage was determined as 0.832.

For A23U G51A, the self-cleavage amounted to 0.844.

Consider A24U A39G, for which the self-cleavage came out at 0.34.

On to G25U A26U, for which the self-cleavage came to 0.542.

A24C U33A: the self-cleavage amounted to 0.2.

As for G25C U70G, the self-cleavage came to 0.402.

With A23U A24U, the self-cleavage amounted to 0.737.

As to A24U C48A, the self-cleavage was determined as 0.0466.

On to G25A A26U, for which the self-cleavage was 0.175.

In the case of A24C A45G, the self-cleavage was 0.171.

For A24C A45C, the self-cleavage came out at 0.235.

Turning to G25C U53G, the self-cleavage is 0.39.

Regarding A24C G32U, the self-cleavage was 0.166.

Regarding A24G U62G, the self-cleavage worked out at 0.0667.

A24G U62C: the self-cleavage stood at 0.257.

With G25U A59C, the self-cleavage is 0.195.

Turning to A24G A45G, the self-cleavage stood at 0.104.

G25A G51A: the self-cleavage worked out at 0.586.

Turning to A24G C66A, the self-cleavage was found to be 0.214.

Consider A24G C66U, for which the self-cleavage is 0.403.

Consider A24C A30G, for which the self-cleavage was determined as 0.201.

A24C A47G: the self-cleavage turned out to be 0.113.

As for A24C A47C, the self-cleavage was 0.272.

As to G25A A71C, the self-cleavage came to 1.1.

Consider A24G G51U, for which the self-cleavage came out at 0.881.

For A24G G51A, the self-cleavage amounted to 0.745.

Turning to G25U C48G, the self-cleavage worked out at 0.129.

On to G25C G34C, for which the self-cleavage came out at 0.967.

In the case of G25C G51C, the self-cleavage turned out to be 0.435.

In the case of A23U G34A, the self-cleavage stood at 0.956.

A23U U52G: the self-cleavage came to 0.753.

Regarding A24U A61C, the self-cleavage turned out to be 0.0949.

For A24U U52C, the self-cleavage stood at 0.723.

In the case of A24U A45G, the self-cleavage was found to be 0.241.

On to G25A U63A, for which the self-cleavage came out at 0.108.

With G25A U63C, the self-cleavage stood at 0.17.

On to G25U G57C, for which the self-cleavage stood at 0.163.

A24C U53G: the self-cleavage stood at 0.733.

For the variant A23U C66U, the self-cleavage came out at 0.545.

Consider A23U C66G, for which the self-cleavage came to 0.222.

In the case of G25U A31G, the self-cleavage was determined as 0.385.

Take A23U G54A: the self-cleavage stood at 0.551.

In the case of A23G U70C, the self-cleavage is 0.934.

For A24U G56U, the self-cleavage came to 0.232.

Consider G25A A39C, for which the self-cleavage was 0.374.

Turning to G25C C65U, the self-cleavage was determined as 0.324.

For A24C A49U, the self-cleavage is 0.119.

With G25A A49G, the self-cleavage was determined as 0.275.

For the variant G25C A44G, the self-cleavage came to 0.085.

Take G25C A44U: the self-cleavage was 0.112.

In the case of A24G U55G, the self-cleavage came out at 0.193.

Turning to A24C G40U, the self-cleavage worked out at 0.132.

For the variant G25C G68C, the self-cleavage is 0.187.

G25C G68U: the self-cleavage came to 0.206.

Take A24C A43U: the self-cleavage is 0.115.

In the case of G25U C50U, the self-cleavage came out at 0.287.

For the variant G25U C50G, the self-cleavage was determined as 0.25.

For the variant A23U G32A, the self-cleavage was 0.147.

A23U G32U: the self-cleavage is 0.19.

For the variant A24G C48G, the self-cleavage was 0.181.

As to A24G C48U, the self-cleavage is 0.179.

For the variant A23G U58A, the self-cleavage came to 0.662.

Consider A26C A41G, for which the self-cleavage is 0.633.

Turning to A26C A41U, the self-cleavage is 0.74.

Consider A23U A41C, for which the self-cleavage is 0.798.

As to A24U G40A, the self-cleavage came out at 0.281.

Take A24U G40U: the self-cleavage came out at 0.187.

Regarding A24U U60C, the self-cleavage amounted to 1.09.

Consider A24G A28U, for which the self-cleavage was found to be 0.475.

On to A24G A28C, for which the self-cleavage was 0.338.

As to G25U A45U, the self-cleavage was found to be 0.162.

With G25U A45G, the self-cleavage is 0.118.

Turning to G25U U33A, the self-cleavage is 0.0923.

Take G25U U33C: the self-cleavage stood at 0.145.

In the case of A24U C38U, the self-cleavage came to 0.471.

Take A24U C38G: the self-cleavage worked out at 0.135.

For G25A G29A, the self-cleavage was 0.204.

Turning to G25A G32U, the self-cleavage amounted to 0.144.

As for A24U A31U, the self-cleavage turned out to be 0.0897.

For the variant A24U A31G, the self-cleavage was found to be 0.392.

For the variant A24C A35G, the self-cleavage is 0.864.

A24U G29A: the self-cleavage came to 0.146.

Regarding A24U G29U, the self-cleavage was determined as 0.0631.

In the case of A23G U63G, the self-cleavage was 0.338.

For the variant A24G A47C, the self-cleavage stood at 0.245.

Consider A24G A47G, for which the self-cleavage is 0.191.

Regarding G25A G27U, the self-cleavage came out at 0.177.

Consider A24C A64C, for which the self-cleavage was 0.192.

As to G25C U52C, the self-cleavage was determined as 0.657.

For A24U A59U, the self-cleavage stood at 0.185.

Consider G25A A45C, for which the self-cleavage was 0.109.

With A23U A49U, the self-cleavage was 0.193.

Consider A24C G42U, for which the self-cleavage stood at 0.374.

In the case of G25A A30C, the self-cleavage came to 0.087.

Regarding G25A U33G, the self-cleavage is 0.136.

On to A26C A36U, for which the self-cleavage is 0.556.

Take A26C A36G: the self-cleavage was determined as 0.846.

Regarding G25U A47C, the self-cleavage came out at 0.241.

In the case of G25U A47G, the self-cleavage turned out to be 0.0793.

For G25A G42U, the self-cleavage was 0.186.

With G25U A35U, the self-cleavage was determined as 0.474.

A24G C38A: the self-cleavage worked out at 0.125.

For the variant A24G C38G, the self-cleavage was 0.197.

Take A23U A45U: the self-cleavage is 0.2.

With A23G U60G, the self-cleavage was 0.516.

Take A23G U60C: the self-cleavage amounted to 0.924.

As for G25C G27U, the self-cleavage was found to be 0.164.
